{
  "source": "paper PMC10023680",
  "about": "“Targeting Ras-binding domain of ELMO1 by computational nanobody design” (Communications Biology, 2023)",
  "binders": {"B1": {"name": "GST-tagged ELMO1-RBD (residues 1-113), wild-type (domain or fragment, human, UniProt Q92556 1-113, looked up)", "chain": "MPPPADIVKVAIEWPGAYPKLMEIDQKKPLSAIIKEVCDGWSLANHEYFALQHADSSNFYITEKNRNEIKNGTILRLTTSPAQNAQQLHERIQSSSMDAKLEALKDLASLSRD", "notes": "the plasmids section describes only His-tagged ELMO1-RBD; also called ELMO1-RBD wild-type; not shown: GST, N-terminal, kept"}, "B2": {"name": "GST-tagged ELMO1-RBD (residues 1-113) K20E (domain or fragment, human, UniProt Q92556 1-113, looked up)", "chain": "B1 chain with K20E", "notes": "not shown: GST, N-terminal, kept"}, "B3": {"name": "GST-tagged ELMO1-RBD (residues 1-113) N58A (domain or fragment, human, UniProt Q92556 1-113, looked up)", "chain": "B1 chain with N58A", "notes": "as for B2"}, "B4": {"name": "GST-tagged ELMO1-RBD (residues 1-113) Y18A (domain or fragment, human, UniProt Q92556 1-113, looked up)", "chain": "B1 chain with Y18A", "notes": "as for B2"}, "B5": {"name": "Nb29 (VHH)", "VHH": "VQLVESGGGLVQAGDSLRLSCAASGLLFSFYIMGWFRQAPGREREFVAAIKWAGDTIYGTDSVKGRFAISRDNAKNTMYLQMNSLKPEDTAVYYCAADRFLTRSVKYTYWGQGTQVTVSS", "notes": "as Nb01 (designed from PDB 5LMW chain A) with S57A, R67T, T68I (CDR2) and D137T (CDR3) relative to Nb01; keeps Leu29 and Lys59; numbers count on: AHo numbering; S57A, R67T, T68I and D137T are stated against Nb01, not against the parent 5LMW; the old residues may themselves be designed ones; source: E. coli cell-free protein synthesis (with DsbC and GSSG), purified (Ni Sepharose)"}, "B6": {"name": "Nb29 (VHH)", "VHH": "B5 VHH", "notes": "It is Nb01 with S57A, R67T, T68I (CDR2) and D137T (CDR3); S57A, R67T, T68I and D137T are stated against Nb01, not against 5LMW; Numbers count on: AHo numbering; A TEV cleavage site follows the N-terminal poly-histidine tag, but no cleavage is described for the nanobodies; source: E. coli cell-free protein synthesis, purified (Ni Sepharose resin)"}, "B7": {"name": "Nb02 (VHH)", "VHH": "B5 VHH with L27M, A49S, K51T, T56R, I57T, T108D", "notes": "designed from the parent nanobody chain A of PDB 5LMW; as Nb01 but with T29M and S59T instead of T29L and S59K; numbers count on: AHo numbering; source: E. coli cell-free protein synthesis (with DsbC and GSSG), purified (Ni Sepharose)"}, "B8": {"name": "ELMO1-RBD (residues 1-82) (domain or fragment, human, UniProt Q92556 1-82, looked up)", "chain": "MPPPADIVKVAIEWPGAYPKLMEIDQKKPLSAIIKEVCDGWSLANHEYFALQHADSSNFYITEKNRNEIKNGTILRLTTSPA"}},
  "conditions_in_all_cases": "both partners purified",
  "key": {"RhoG (residues 1-184) [1]": {"molecular_target": "T1, RhoG (residues 1-184) (human, UniProt P84095 1-184)", "T1 construct": "human RhoG, residues 1-184; Loaded with GTPγS for the SPR assays; also called active RhoG; source: Sf9 (baculovirus), purified (HisTrap, TEV, Superdex 75); not shown: poly-histidine tag, N-terminal, cleaved", "T1 sequence (P84095 1-184)": "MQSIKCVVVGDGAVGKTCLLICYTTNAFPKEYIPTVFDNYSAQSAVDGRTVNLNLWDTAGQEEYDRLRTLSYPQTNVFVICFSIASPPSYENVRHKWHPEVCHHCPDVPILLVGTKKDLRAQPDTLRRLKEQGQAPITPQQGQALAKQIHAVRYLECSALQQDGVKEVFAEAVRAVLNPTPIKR", "test": "SPR; Biacore T200; GST-ELMO1-RBD (1-113, wild-type or mutants) captured on CM5 chip with GST Capture Kit; GTPγS-bound RhoG injected at 2.2-35.5 μM (Rac1 and Cdc42 measured similarly); 10 mM HEPES pH 7.5, 150 mM NaCl, 1 mM MgCl2, 0.005% P-20; steady-state affinity analysis"}, "[2]": {"molecular_target": "ELMO1-RBD (residues 1-98) (Homo sapiens, UniProt Q92556)", "test": "SPR; Biacore T200; ELMO1-RBD (1-98) amine-coupled to CM5 chip; nanobody designs injected at five concentrations (0.5-8 μM); 10 mM HEPES pH 7.5, 150 mM NaCl, 0.005% P-20; single-cycle kinetic analysis"}, "[3]": {"molecular_target": "T2, ELMO1-RBD (residues 1-98) (Homo sapiens, UniProt Q92556)", "T2 construct": "source: E. coli cell-free protein synthesis, purified (HisTrap, HiTrap Q, Superdex 75); not shown: histidine tag, N-terminal, cleaved", "test": "SPR; ELMO1-RBD (residues 1-98) immobilised on a CM5 chip by amine coupling; 10 mM HEPES pH 7.5, 150 mM NaCl, 0.005% surfactant P-20; five concentrations (0.5-8 uM) of each nanobody injected continuously; single-cycle kinetic analysis; Biacore T200"}, "RhoG (residues 1-184) [4]": {"molecular_target": "T1, RhoG (residues 1-184)", "test": "crystal structure; equimolar ELMO1-RBD (residues 1-82) and RhoG mixed at 16 mg/ml, 4 °C for 4 h; hanging-drop vapor diffusion at 20 °C; 1.6 Å"}},
  "note": "Changes are numbered by the printed parent chain. Names and notes keep the numbering of the source.",
  "data": [
    {"binder": "B1", "values": [
      {"measurement": "binding result", "setting": "RhoG (residues 1-184) [1]", "value": "binds"}
    ]},
    {"binder": "B2", "values": [
      {"measurement": "binding result", "setting": "RhoG (residues 1-184) [1]", "value": "binds"}
    ]},
    {"binder": "B3", "values": [
      {"measurement": "binding result", "setting": "RhoG (residues 1-184) [1]", "value": "binds"}
    ]},
    {"binder": "B4", "values": [
      {"measurement": "binding result", "setting": "RhoG (residues 1-184) [1]", "value": "binds"}
    ]},
    {"binder": "B5", "values": [
      {"measurement": "Kd", "setting": "[2]", "value": 2, "unit": "µM"}
    ]},
    {"binder": "B6", "values": [
      {"measurement": "Kd", "setting": "[3]", "value": 2.02, "unit": "µM"}
    ]},
    {"binder": "B7", "values": [
      {"measurement": "binding result", "setting": "[2]", "value": "no binding (tested: 0.5-8 μM)"}
    ]},
    {"binder": "B8", "values": [
      {"measurement": "binding result", "setting": "RhoG (residues 1-184) [4]", "value": "binds"}
    ]}
  ]
}
